# Measured values taken from PMC9599533.
# Several values for one entry are separate records, joined by “and”; a condition that tells them apart may be missing. Equal values may be shown once.
# Experiments:
# [1] = target: M. tuberculosis open gate 20S core particle (20SOG CP) (M. tuberculosis) (UniProt P9WHU1); assay: cryo-EM structure
# [2] = target: Mpa_(C-EXT) (mycobacterial proteasome ATPase Mpa with a GGGGS linker inserted between Thr601 and Glu (M. tuberculosis) (UniProt P9WQN5)); assay: cryo-EM structure
substance,measurement,setting,value
Mpa_(C-EXT) (mycobacterial proteasome ATPase Mpa with a GGGGS linker inserted between Thr601 and Glu (from UniProt P9WQN5 1-609) (enzyme),percent of 20SOG CPs complexed,[1],50% and 40%
same,stoichiometry N,[2],6
